Values of other authors as cited in publication PMC8808565 (iScience, 2022).

Test system: ACE2

B1: human defensin 5 (protein, UniProt Q01523 20-94, looked up)
Defensin alpha 5: ESLQERADEATTQKQSGEDNQDLAISFAGNGLSALRTSGSQARATCYCRTGRCATRESLSGVCEISGRLYRLCCR
modifications: Defensin-5
For B1, the “target (in words)” value is listed as “target ACE2”.
